T1: Cor1, subunit of complex III (S. cerevisiae, UniProt P07256 27-457)
T1 sequence: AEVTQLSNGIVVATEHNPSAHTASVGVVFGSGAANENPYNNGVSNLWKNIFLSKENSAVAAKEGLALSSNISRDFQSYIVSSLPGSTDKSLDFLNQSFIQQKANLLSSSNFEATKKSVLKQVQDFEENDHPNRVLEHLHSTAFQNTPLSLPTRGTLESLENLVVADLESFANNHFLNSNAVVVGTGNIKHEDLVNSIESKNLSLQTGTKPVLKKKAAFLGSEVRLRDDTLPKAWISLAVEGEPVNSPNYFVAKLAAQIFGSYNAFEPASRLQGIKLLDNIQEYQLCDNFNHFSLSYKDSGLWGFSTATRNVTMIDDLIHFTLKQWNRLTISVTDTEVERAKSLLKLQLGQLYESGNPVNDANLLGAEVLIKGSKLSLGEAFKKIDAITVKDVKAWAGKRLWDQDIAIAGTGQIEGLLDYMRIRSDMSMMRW


Assays:
[1] = target: wild-type (untethered) III2IV2 respiratory supercomplex with Cox4-Flag (S. cerevisiae) (UniProt P07256); assay: co-IP
[2] = target: T1, Cor1, subunit of complex III; assay: cryo-EM structure

fold decrease of co-purified Nde1 (normalised to purified SC) against III2IV1 SC [1] [fold]	binding result [2]	Binder
2		Nde1, external mitochondrial NADH dehydrogenase (enzyme) EDKKVILQKVAPTTGVVAKQSFFKRTGKFTLKALLYSALAGTAYVSYSLYREANPSTQVPQSDTFPNGSKRKTLVILGSGWGSVSLLKNLDTTLYNVVVVSPRNYFLFTPLLPSTPVGTIELKSIVEPVRTIARRSHGEVHYYEAEAYDVDPENKTIKVKSSAKNNDYDLDLKYDYLVVGVGAQPNTFGTPGVYEYSSFLKEISDAQEIRLKIMSSIEKAASLSPKDPERARLLSFVVVGGGPTGVEFAAELRDYVDQDLRKWMPELSKEIKVTLVEALPNILNMFDKYLVDYAQDLFKEEKIDLRLKTMVKKVDATTITAKTGDGDIENIPYGVLVWATGNAPREVSKNLMTKLEEQDSRRGLLIDNKLQLLGAKGSIFAIGDCTFHPGLFPTAQVAHQEGEYLAQYFKKAYKIDQLNWKMTHAKDDSEVARLKNQIVKTQSQIEDFKYNHKGALAYIGSDKAIADLAVGEAKYRLAGSFTFLFWKSAYLAMCLSFRNRVLVAMDWAKVYFLGRDSSI
	binds	Cox5a, subunit of complex IV (natural protein) AQTHALSNAAVMDLQSRWENMPSTEQQDIVSKLSERQKLPWAQLTEPEKQAVWYISYGEWGPRRPVLNKGDSSFIAKGVAAGLLFSVGLFAVVRMAGGQDAKTMNKEWQLKSDEYLKSKNANPWGGYSQVQSK

— doi:10.1101/2024.12.19.629262 (bioRxiv, 2024)
